From paper PMC8809517, “Cofactor-independent RNA editing by a synthetic S-type PPR protein”

Legend:
Test in all cases: high-throughput RNA pulldown from lysate on Ni-NTA beads; HRP: 50 mM Tris pH 8, 150 mM NaCl, 1 mM beta-mercaptoethanol, 50 ug/ml BSA, 3 ug/ml yeast RNA, 0.5% heparin; ITC and FP: Tris pH 8, 200 mM KCl, 5% glycerol; MST: 50 mM Tris pH 8, 200 mM NaCl, 1 mM DTT, BSA, heparin, 0.05% Tween 20
Conditions in all cases: tags: N-terminal His-eGFP
[1] = molecular target: T1, GFP-9S library array, motif 4 ND N98E;D124S (synthetic construct, N98E;D124S)
T1 chain: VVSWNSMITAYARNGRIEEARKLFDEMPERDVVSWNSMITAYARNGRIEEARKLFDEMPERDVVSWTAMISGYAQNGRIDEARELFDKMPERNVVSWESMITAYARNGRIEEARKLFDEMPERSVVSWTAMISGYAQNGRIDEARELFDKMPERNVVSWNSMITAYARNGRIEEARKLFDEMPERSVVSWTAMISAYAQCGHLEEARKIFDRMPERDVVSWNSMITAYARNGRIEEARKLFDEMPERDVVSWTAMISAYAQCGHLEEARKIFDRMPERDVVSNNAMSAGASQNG

[2] = molecular target: T2, GFP-9S library array, motif 4 ND N98C;D124Y (synthetic construct, N98C;D124Y)
T2 chain: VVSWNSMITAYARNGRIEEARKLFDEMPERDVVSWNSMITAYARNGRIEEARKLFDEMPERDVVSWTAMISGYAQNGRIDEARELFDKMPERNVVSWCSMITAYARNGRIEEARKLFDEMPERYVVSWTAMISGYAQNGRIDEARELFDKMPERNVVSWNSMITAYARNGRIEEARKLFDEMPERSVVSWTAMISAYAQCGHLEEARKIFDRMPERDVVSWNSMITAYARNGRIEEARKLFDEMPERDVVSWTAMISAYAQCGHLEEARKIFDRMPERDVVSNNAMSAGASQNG

[3] = molecular target: T3, GFP-9S library array, motif 4 ND N98G;D124W (synthetic construct, N98G;D124W)
T3 chain: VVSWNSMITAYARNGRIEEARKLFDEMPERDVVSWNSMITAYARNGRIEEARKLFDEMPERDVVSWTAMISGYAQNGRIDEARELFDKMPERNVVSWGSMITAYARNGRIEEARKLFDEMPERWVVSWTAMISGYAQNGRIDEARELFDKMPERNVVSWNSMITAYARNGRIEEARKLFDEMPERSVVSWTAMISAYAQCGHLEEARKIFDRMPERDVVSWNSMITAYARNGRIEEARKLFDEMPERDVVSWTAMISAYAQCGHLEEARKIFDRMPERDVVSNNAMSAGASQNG

[4] = molecular target: T4, GFP-9S library array, motif 4 ND N98I;D124W (synthetic construct, N98I;D124W)
T4 chain: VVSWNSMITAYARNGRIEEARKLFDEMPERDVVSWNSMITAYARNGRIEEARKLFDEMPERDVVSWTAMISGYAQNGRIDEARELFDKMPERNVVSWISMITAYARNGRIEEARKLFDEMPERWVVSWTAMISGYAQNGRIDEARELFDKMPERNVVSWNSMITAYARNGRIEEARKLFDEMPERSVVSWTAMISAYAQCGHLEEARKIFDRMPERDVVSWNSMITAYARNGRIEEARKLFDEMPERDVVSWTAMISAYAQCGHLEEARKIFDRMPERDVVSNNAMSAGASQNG

[5] = molecular target: T5, GFP-9S library array, motif 4 ND N98S;D124V (synthetic construct, N98S;D124V)
T5 chain: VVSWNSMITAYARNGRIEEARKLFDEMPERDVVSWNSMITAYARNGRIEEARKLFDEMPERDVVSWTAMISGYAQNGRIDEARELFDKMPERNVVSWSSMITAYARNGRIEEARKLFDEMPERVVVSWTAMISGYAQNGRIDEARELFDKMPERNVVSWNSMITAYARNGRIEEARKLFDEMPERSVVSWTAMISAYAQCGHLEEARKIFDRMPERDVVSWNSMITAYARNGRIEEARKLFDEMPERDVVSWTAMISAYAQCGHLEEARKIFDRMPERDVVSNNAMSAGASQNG

## AUUAGACGUGA (ssRNA) [Cy5-rpoA-G]
[1]; label: 5' Cy5
  Kd: 630 nM
[2]; label: 5' Cy5
  Kd: 72.3 nM
[3]; label: 5' Cy5
  Kd: 69.1 nM
[4]; label: 5' Cy5
  Kd: 98.3 nM
[5]; label: 5' Cy5
  Kd: 74.5 nM

## AUUAUACGUGA (ssRNA) [IR-rpoA-U]
[1]; label: 5' IRDye 800CW
  Kd: 512 nM
[2]; label: 5' IRDye 800CW
  Kd: 94.2 nM
[3]; label: 5' IRDye 800CW
  Kd: 67 nM
[4]; label: 5' IRDye 800CW
  Kd: 136 nM
[5]; label: 5' IRDye 800CW
  Kd: 152 nM

## AUUAAACGUGA (ssRNA) [IR-rpoA-A]
[1]; label: 5' IRDye 800CW
  Kd: 938 nM
[2]; label: 5' IRDye 800CW
  Kd: 217 nM
[3]; label: 5' IRDye 800CW
  Kd: 74.5 nM
[4]; label: 5' IRDye 800CW
  Kd: 252 nM
[5]; label: 5' IRDye 800CW
  Kd: 51.2 nM

## AUUACACGUGA (ssRNA) [Cy5-rpoA]
[1]; label: 5' Cy5
  Kd: 422 nM
[2]; label: 5' Cy5
  Kd: 56.9 nM
[3]; label: 5' Cy5
  Kd: 49.7 nM
[4]; label: 5' Cy5
  Kd: 74.5 nM
[5]; label: 5' Cy5
  Kd: 114 nM
